Article PMC4909252, “High-resolution NMR structures of the domains of Saccharomyces cerevisiae Tho1”

Tests used:
[1] = molecular target: T1, Tho1 N-terminal SAP domain (Saccharomyces cerevisiae, UniProt P40040 1-50); experiment: NMR (15N HSQC); 200 uM protein, 200 uM DNA; 15N HSQC, 200 uM protein and oligo; typical NMR buffer 20 mM potassium phosphate pH 6.5, 100 mM NaCl, 5 mM beta-mercaptoethanol, 10% D2O, 25 C; details: protein: recombinant; tags: His6-lipoyl fusion removed by TEV; 15N-labelled; blunt, self-complementary, 2 copies of one strand
T1 chain: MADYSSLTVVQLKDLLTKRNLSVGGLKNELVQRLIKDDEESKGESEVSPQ

[2] = molecular target: T1, Tho1 N-terminal SAP domain; experiment: NMR (15N HSQC); 200 uM protein; 15N HSQC, 200 uM protein and oligo; typical NMR buffer 20 mM potassium phosphate pH 6.5, 100 mM NaCl, 5 mM beta-mercaptoethanol, 10% D2O, 25 C; details: protein: recombinant; tags: His6-lipoyl fusion removed by TEV; 15N-labelled; called dsRNA

B1: random dsDNA 12-mer (dsDNA)
DNA 1: TCCTGATCAGGA
DNA 2: TCCTGATCAGGA
B1: binds [1].

GGACAGCUGUCCCUUCGGGGACAGCUGUCC (structured_RNA) [30-mer dsRNA]: no binding [2].
